In the experiment the target is BRCA2 protein, endogenous in cell extracts (human) (UniProt P51587). Nature of the experiment: estimate from co-immunoprecipitation with anti-BRCA2 antibodies.
UniProt P51587, sequence (P51587 whole entry): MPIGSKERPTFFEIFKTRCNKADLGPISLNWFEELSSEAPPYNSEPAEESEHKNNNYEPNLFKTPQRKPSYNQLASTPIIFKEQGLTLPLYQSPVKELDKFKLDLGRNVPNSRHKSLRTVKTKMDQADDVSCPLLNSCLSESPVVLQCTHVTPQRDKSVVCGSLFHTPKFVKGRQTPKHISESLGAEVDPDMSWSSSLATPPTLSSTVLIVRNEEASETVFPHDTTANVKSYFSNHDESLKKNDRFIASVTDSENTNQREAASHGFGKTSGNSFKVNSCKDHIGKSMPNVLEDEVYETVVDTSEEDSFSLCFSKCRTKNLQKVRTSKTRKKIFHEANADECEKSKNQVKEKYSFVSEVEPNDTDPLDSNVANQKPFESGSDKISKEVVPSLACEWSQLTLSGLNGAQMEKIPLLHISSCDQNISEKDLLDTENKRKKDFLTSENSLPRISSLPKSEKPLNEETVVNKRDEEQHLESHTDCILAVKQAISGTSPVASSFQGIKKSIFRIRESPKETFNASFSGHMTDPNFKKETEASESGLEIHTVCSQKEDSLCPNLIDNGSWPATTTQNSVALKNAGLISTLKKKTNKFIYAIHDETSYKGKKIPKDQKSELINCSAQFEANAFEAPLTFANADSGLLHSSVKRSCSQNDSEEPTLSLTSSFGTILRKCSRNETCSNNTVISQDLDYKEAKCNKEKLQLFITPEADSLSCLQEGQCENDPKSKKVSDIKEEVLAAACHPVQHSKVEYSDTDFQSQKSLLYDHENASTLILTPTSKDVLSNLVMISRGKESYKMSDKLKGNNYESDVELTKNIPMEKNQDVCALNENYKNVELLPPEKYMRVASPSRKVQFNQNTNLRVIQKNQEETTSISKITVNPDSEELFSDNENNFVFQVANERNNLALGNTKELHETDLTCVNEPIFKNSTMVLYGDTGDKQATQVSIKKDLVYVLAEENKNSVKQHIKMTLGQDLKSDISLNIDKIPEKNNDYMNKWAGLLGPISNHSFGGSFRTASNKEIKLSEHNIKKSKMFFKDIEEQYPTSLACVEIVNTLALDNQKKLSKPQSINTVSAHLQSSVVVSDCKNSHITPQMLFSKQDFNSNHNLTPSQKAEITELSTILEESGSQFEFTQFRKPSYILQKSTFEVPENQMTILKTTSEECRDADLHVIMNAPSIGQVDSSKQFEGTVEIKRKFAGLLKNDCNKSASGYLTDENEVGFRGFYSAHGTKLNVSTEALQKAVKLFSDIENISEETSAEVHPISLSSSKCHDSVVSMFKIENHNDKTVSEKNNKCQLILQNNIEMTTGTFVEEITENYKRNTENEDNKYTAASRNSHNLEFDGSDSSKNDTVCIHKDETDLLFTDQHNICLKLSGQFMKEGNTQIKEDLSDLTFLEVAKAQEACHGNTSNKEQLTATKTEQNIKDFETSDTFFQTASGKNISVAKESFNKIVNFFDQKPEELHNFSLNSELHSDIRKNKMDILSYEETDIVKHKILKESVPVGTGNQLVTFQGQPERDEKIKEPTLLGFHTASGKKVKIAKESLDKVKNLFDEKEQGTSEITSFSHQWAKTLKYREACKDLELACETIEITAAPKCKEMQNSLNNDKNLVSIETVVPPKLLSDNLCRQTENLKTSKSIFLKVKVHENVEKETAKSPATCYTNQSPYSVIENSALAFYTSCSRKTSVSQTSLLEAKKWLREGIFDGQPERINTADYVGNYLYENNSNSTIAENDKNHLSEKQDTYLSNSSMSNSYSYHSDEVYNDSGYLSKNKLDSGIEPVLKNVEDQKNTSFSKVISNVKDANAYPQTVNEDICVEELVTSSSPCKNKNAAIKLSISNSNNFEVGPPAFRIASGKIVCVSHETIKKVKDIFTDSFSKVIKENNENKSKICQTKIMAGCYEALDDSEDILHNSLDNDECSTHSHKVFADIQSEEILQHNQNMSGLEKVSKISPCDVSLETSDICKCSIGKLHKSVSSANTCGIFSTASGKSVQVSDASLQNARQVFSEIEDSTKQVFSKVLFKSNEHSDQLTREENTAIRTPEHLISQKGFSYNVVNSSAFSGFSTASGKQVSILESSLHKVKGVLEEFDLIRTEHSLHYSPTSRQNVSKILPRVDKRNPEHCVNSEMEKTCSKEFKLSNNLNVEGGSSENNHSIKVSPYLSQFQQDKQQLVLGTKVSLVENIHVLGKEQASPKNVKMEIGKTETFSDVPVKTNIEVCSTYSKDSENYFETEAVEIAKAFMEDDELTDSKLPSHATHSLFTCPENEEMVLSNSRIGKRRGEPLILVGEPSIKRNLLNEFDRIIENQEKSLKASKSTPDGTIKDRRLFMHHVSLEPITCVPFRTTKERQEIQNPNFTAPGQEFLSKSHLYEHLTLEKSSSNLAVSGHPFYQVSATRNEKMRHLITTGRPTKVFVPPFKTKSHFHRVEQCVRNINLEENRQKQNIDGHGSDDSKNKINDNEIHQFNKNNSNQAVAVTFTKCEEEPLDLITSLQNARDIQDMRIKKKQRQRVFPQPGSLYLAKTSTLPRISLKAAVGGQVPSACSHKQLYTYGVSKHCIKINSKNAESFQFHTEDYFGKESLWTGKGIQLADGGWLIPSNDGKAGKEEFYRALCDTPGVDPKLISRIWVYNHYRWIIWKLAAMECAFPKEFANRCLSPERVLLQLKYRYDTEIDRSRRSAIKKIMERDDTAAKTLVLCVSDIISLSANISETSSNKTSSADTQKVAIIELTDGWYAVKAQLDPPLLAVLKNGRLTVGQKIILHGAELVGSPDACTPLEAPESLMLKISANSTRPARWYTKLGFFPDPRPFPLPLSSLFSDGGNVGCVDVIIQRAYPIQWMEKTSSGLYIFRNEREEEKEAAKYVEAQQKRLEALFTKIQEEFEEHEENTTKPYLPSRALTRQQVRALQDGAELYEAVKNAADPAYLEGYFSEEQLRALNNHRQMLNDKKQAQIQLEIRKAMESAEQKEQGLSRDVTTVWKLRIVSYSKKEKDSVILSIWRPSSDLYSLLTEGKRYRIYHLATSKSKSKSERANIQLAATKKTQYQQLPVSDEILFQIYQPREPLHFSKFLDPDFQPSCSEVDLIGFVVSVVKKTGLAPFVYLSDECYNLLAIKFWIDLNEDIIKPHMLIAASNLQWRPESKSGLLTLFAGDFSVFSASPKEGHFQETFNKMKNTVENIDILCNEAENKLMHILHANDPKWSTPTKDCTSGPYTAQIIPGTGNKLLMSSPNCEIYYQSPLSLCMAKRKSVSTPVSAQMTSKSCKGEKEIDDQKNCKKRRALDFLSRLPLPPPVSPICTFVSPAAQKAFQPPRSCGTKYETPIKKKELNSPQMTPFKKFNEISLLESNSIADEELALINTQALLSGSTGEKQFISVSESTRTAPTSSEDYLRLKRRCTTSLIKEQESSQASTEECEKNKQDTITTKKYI

For “BRAF35, endogenous protein in HeLa or MCF7 cell extracts”, the percent of endogenous BRAF35 present in the BRCA2 complex was 2 to 4%.

The values are drawn from patent US20040053347A1.
